Measured values: patent US20080050363A1 (published 2008)
Ends that are not written are not given here.

B1: [Met^5]-enkephalin (opioid growth factor) (peptide, UniProt P01210 100-104, looked up)
peptide: YGGFM
modifications: also: [3H] label on radioligand form
notes: domain: [Met^5]-enkephalin; only the pentapeptide stood in the assay; also called OGF; [^3H]-[Met^5]-enkephalin
B2: dynorphin A1-8 (peptide, UniProt P01213 207-214, looked up)
peptide: YGGFLRRI
notes: domain: Dynorphin A1-8; 1-8 counts on dynorphin A, not on the precursor

Legend:
[1] = target: human OGF receptor (OGFr), native, in nuclear preparations of human cells and tissues (human) (UniProt Q9NZT2); assay: competition with [3H]-[Met5]-enkephalin, PANC-1 nuclear homogenates; IC50/Kd
[2] = target: T1, 12-GST fusion protein (GST fused to rat OGFr, all 580 amino acids, from clone #12) (rat, UniProt Q9QXY4 1-580); assay: [3H]-[Met5]-enkephalin saturation binding, filter assay, purified 12-GST fusion protein, 22 C
T1 construct: The order GST then OGFr follows the pGEX-3X vector; also called purified fusion protein from the rat OGFr cDNA clone #12; not shown: glutathione-S-transferase (GST) of the pGEX-3X expression vector
T1 sequence: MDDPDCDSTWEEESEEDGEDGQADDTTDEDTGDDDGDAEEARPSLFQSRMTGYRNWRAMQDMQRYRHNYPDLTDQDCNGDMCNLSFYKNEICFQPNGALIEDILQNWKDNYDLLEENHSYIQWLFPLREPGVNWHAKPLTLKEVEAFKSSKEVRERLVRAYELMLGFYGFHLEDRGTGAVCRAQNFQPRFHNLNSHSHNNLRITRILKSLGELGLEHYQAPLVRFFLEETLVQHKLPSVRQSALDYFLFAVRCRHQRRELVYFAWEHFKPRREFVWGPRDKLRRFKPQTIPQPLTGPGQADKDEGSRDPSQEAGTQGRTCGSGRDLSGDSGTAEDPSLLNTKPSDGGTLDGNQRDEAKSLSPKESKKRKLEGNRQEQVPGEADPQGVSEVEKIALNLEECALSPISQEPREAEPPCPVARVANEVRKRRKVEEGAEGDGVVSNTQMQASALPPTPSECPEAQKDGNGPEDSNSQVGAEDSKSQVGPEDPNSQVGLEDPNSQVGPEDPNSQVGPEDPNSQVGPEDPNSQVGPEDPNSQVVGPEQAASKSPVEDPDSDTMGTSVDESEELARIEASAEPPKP
Description: Fusion proteins (80-120 ng/tube) were incubated for 30 min with shaking at 22° C. Non-specific binding was measured in the presence of unlabeled [Met⁵]-enkephalin. In some assays, NTX (10⁻³ M) was added to the reaction mixture to monitor opioid antagonist blockade of binding. Binding was terminated by filtering homogenates through Whatman GF/B filters. Saturation isotherms were plotted using GraphPad Prism software (GraphPad Software Inc., San Diego, Calif.).

[3] = target: T2, human OGF receptor (OGFr), native, in nuclear preparations of human cells and tissues (human, UniProt Q9NZT2 1-662, limits assumed); assay: radioligand saturation binding, nuclear-enriched fraction of human placenta
T2 construct: Native receptor in nuclear homogenates (placenta, PANC-1, MIA PaCa-2, Capan-1, BxPC-3, pancreatic tissue, head and neck tissue); also called zeta opioid receptor; receptor for OGF
T2 chain: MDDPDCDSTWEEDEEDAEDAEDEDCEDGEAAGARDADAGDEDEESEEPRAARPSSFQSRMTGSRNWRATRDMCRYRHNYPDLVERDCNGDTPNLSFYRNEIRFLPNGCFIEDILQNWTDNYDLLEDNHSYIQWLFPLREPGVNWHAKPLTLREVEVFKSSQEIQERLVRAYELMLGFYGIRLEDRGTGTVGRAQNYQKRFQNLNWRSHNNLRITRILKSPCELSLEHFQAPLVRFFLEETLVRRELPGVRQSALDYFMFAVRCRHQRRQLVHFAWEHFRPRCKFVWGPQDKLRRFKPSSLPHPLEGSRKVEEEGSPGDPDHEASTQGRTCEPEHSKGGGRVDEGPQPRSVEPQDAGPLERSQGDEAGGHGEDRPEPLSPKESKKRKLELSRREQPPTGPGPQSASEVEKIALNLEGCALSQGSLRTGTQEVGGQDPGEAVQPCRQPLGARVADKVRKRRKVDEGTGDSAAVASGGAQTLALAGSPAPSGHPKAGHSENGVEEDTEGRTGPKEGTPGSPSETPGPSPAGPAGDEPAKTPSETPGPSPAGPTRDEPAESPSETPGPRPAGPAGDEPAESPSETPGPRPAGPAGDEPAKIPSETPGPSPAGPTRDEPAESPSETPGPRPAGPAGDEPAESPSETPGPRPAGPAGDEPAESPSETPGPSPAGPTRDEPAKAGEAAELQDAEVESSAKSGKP

[4] = target: T2, human OGF receptor (OGFr), native, in …; assay: competition with [3H]-[Met5]-enkephalin, PANC-1 nuclear homogenates; IC50/Kd
Description: Each concentration was run in triplicate and every compound was tested twice.
Competition experiments using 1 or 2 nM [³H]

| Molecule | IC50 [1] [µM] | IC50 [4] [µM] | further results |
| --- | --- | --- | --- |
| [D-Ala^2, N-Me-Phe^4, Gly^5-ol]-enkephalin (peptide) | > 100 |  |  |
| ICI-174, 568 (peptide) | > 100 |  |  |
| [D-Pen^2, Pen^5]-enkephalin (peptide) | > 100 |  |  |
| B1 |  |  | Kd [2]: 0.0028 µM; Kd [3]: 0.0123 µM |
| YGGFL (peptide, UniProt P01210 230-234, looked up, domain: Leucine enkephalin) [Leucine enkephalin] |  | > 100 |  |
| B2 |  | > 100 |  |
